Data on five molecules can be found in PMC11997652, “Transcription factors MdEIL1 and MdHY5 integrate ethylene and light signaling to promote chlorophyll degradation in mature apple peels”.

One data set deals with T1, MdHY5 (apple, UniProt L0MZN5 1-164).
T1 sequence: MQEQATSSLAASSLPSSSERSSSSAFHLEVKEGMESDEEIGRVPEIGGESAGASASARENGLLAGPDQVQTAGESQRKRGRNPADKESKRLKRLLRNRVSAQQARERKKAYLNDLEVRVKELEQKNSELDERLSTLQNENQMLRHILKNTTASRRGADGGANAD
Description: EMSA; LightShift Chemiluminescent EMSA kit (Thermo); buffer, salt, pH and temperature not stated; cold probe 25x, 50x, 100x. To be noted: protein: recombinant; tags: His (pET32a fusion); chain copies: 2; label: 3' biotin on both strands; blunt.

Data set [1] deals with T2, MdEIL1 (labelled MdEIN3-HIS in the Fig. 7d figure text);MdHY5 (apple;apple, UniProt D5L144;L0MZN5 1-659;1-164, |).
T2 sequence 1: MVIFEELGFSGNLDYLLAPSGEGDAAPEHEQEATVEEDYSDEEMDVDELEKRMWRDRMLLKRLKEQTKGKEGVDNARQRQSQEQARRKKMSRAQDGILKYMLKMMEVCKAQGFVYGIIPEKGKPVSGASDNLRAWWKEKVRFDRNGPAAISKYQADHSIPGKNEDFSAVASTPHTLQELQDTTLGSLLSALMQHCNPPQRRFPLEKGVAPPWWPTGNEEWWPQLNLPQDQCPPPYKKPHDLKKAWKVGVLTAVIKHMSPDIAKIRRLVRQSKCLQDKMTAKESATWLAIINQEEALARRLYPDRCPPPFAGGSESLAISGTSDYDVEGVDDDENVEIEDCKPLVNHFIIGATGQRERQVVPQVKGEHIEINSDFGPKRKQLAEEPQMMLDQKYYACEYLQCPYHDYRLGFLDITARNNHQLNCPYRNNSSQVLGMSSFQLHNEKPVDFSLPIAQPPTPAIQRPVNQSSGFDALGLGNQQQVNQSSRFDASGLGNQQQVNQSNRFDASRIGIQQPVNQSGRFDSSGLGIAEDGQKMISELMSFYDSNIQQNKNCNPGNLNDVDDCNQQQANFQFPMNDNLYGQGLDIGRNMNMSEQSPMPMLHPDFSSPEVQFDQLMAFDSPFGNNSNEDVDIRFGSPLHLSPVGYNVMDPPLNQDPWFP
T2 sequence 2: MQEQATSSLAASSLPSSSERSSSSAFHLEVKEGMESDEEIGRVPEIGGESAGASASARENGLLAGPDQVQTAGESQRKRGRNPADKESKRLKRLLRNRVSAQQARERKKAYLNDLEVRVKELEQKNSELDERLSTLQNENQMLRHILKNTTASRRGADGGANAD
Briefly: EMSA; MdHY5 added to MdEIL1 enhances binding; LightShift Chemiluminescent EMSA kit (Thermo); buffer, salt, pH and temperature not stated; cold probe 25x, 50x, 100x. Conditions: protein: recombinant;recombinant; tags: His (pET32a fusion);His (pET32a fusion); label: 3' biotin on both strands; blunt. (A gel shift assay detects complexes by their altered migration in electrophoresis.)

For data set [2], the target named is T3, MdEIL1 (labelled MdEIN3-HIS in the Fig. 7d figure text) (apple, UniProt D5L144 1-659).
T3 sequence: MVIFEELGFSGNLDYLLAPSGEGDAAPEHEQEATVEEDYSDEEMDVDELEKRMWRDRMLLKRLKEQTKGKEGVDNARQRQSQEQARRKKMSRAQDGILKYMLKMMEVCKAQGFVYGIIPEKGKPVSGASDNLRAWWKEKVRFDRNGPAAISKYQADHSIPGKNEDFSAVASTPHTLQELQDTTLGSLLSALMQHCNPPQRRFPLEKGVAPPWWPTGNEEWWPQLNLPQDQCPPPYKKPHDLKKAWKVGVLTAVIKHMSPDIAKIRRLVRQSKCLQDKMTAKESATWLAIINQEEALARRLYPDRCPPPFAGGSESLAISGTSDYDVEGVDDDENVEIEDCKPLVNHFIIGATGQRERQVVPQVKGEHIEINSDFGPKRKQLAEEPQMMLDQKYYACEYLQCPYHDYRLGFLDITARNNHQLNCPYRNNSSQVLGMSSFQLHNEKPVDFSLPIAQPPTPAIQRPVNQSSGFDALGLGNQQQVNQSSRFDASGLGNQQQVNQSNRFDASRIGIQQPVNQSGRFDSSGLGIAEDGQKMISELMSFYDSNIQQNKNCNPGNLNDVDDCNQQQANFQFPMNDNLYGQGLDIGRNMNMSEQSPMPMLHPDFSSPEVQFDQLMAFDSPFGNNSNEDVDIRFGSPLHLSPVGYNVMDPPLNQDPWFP
Briefly: EMSA; LightShift Chemiluminescent EMSA kit (Thermo); buffer, salt, pH and temperature not stated; cold probe 25x, 50x, 100x. To be noted: protein: recombinant; tags: His (pET32a fusion); label: 3' biotin on both strands; blunt.

In data set [3] the target is T2, MdEIL1 (labelled MdEIN3-HIS in the Fig. …). Briefly: EMSA; MdHY5 with MdEIL1 enhances binding; LightShift Chemiluminescent EMSA kit (Thermo); buffer, salt, pH and temperature not stated; cold probe 25x, 50x, 100x. Conditions: protein: recombinant;recombinant; tags: His (pET32a fusion);His (pET32a fusion); label: 3' biotin on both strands; blunt.
Data set [4] has the same target. Briefly: EMSA; MdEIL1 added to MdHY5 enhances binding; LightShift Chemiluminescent EMSA kit (Thermo); buffer, salt, pH and temperature not stated; cold probe 25x, 50x, 100x. To be noted: protein: recombinant;recombinant; tags: His (pET32a fusion);His (pET32a fusion); label: 3' biotin on both strands; blunt.

B1: MdERF17-G-box2 hot probe (dsDNA)
DNA 1: ATCATATACATATATATATGCACGTTGAAAACTTAGCTCCTTTGTT
DNA 2: AACAAAGGAGCTAAGTTTTCAACGTGCATATATATATGTATATGAT
As for B1, the binding result with MdHY5 is “no binding”.

B2: MdERF17-TACAT3 hot probe (dsDNA)
DNA 1: GGTGAGGTTTGGGTTGAATTTACATAATGAGTCACTCATAGTAAA
DNA 2: TTTACTATGAGTGACTCATTATGTAAATTCAACCCAAACCTCACC
Regarding B2, the binding result in data set [1] and in data set [2] was “binds” each time.

B3: MdHY5-TACAT hot probe (dsDNA)
DNA 1: GCTTCCCCGTAACCAAGAAATACATGCATTTTCCGTCCAGCACAC
DNA 2: GTGTGCTGGACGGAAAATGCATGTATTTCTTGGTTACGGGGAAGC
As for B3, the binding result in data set [2] and in data set [3] was “binds” throughout.

B4: MdERF17-G-box3 hot probe (dsDNA)
DNA 1: CCGTATGAGGACAAATAACACACGTGCTTCGAAACCCGTCTCTCTG
DNA 2: CAGAGAGACGGGTTTCGAAGCACGTGTGTTATTTGTCCTCATACGG
For the molecule B4, the binding result (in data set [4]; with MdHY5) was “binds” each time.

B5: MdERF17-G-box1 hot probe (dsDNA)
DNA 1: GTGTGTTTTATTGCATCATTCACGTGTCATCTTTGCAAAAAATTAG
DNA 2: CTAATTTTTTGCAAAGATGACACGTGAATGATGCAATAAAACACAC
Regarding B5, in the data set with MdHY5, the binding result is listed as “no binding”.
